Like-named read-outs stand apart in the source and are kept apart here.
Key:
[1] = target: L43A ubiquitin (UniProt P0CG48); assay: NMR titration
[2] = target: L43A ubiquitin (UniProt P0CG48); assay: 15N T1 relaxation
[3] = target: L43A ubiquitin (UniProt P0CG48); assay: NMR titration; remark: listed apart in the source

Substance	stoichiometry N [1]	stoichiometry N [2]	Kd [3] [µM]	Kd [1] [µM]
UBA2 domain of hHR23a (from UniProt P54725 1-363) (domain or fragment)	1			
ubiquilin-1 UBA domain (UQ1-UBA) construct (from UniProt Q9UMX0 541-586) (domain or fragment)		1	28	26

From article PMC3951674
